Values quoted from earlier work, collected in PMC8945002.

Biological target: BfrB (recombinant) (Pseudomonas aeruginosa) (UniProt Q9HY79)
Assay: SPR

Bfd, sequence (Q9HY80 whole entry): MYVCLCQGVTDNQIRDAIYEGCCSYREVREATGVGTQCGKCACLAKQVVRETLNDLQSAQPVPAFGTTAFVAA
BfrB (recombinant) (Pseudomonas aeruginosa), sequence (Q9HY79 whole entry): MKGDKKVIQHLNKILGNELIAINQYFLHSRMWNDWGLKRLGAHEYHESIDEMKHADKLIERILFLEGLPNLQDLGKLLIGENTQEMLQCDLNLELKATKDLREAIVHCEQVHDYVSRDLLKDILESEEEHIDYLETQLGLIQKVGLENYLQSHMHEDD

For Bfd (from UniProt Q9HY80), the Kd is listed as 3.3 µM.
